From PMC10539301, “Structure of the human ATAD2 AAA+ histone chaperone reveals mechanism of regulation and inter-subunit communication” (Communications Biology, 2023)
Changes are numbered by the printed parent chain. In names and notes the source's numbering stands.

How the values were obtained:
[1] = biological target: the molecule itself; assay: SEC + native gel or EMSA + other: negative stain electron microscopy; purified ATAD2 (aa 403-1390) variants; wild type in the absence and presence of ATP; Supplementary Fig. 1
[2] = biological target: the molecule itself; assay: cryo-EM structure; ATAD2 Walker B mutant and refolded H3/H4 or H3/H4K5Q mixed 1:1.5 in 150 mM NaCl, cross-linked with 1 mM DSS, purified on a 10-30% sucrose gradient; vitrified at 1.2 mg/mL with 1 mM Mg-ATP; classes I-III at 3.8, 4.3, 4.3 Å
[3] = biological target: T1, Histone H3/H4 complex (X. laevis, wild type, refolded) (X. laevis, UniProt P84233 1-136; P62799 1-103); assay: cross-linking; DSS 1 mM, 30 min, 37 °C, in 25 mM HEPES pH 7.5, 150 mM NaCl, 5% glycerol, 1 mM DTT; sucrose gradient fraction of hexameric ATAD2; cross-links found by mass spectrometry (XL-MS); conditions: both partners purified
T1 construct: It was pooled as the H3/H4 tetramer in 2 M NaCl and diluted to 150 mM NaCl before mixing; also called wild type H3/H4

[4] = biological target: Histone H4 (X. laevis, recombinant) (X. laevis, UniProt P62799 1-103); assay: as above; conditions: both partners purified
[5] = biological target: Histone H3 (X. laevis, recombinant) (X. laevis, UniProt P84233 1-136); assay: as above; conditions: both partners purified

B1: N-terminally truncated ATAD2 (aa 403-1390), wild type (domain or fragment, human, UniProt Q6PL18 403-1390, looked up)
chain: DRMKIGASLADVDPMQLDSSVRFDSVGGLSNHIAALKEMVVFPLLYPEVFEKFKIQPPRGCLFYGPPGTGKTLVARALANECSQGDKRVAFFMRKGADCLSKWVGESERQLRLLFDQAYQMRPSIIFFDEIDGLAPVRSSRQDQIHSSIVSTLLALMDGLDSRGEIVVIGATNRLDSIDPALRRPGRFDREFLFSLPDKEARKEILKIHTRDWNPKPLDTFLEELAENCVGYCGADIKSICAEAALCALRRRYPQIYTTSEKLQLDLSSINISAKDFEVAMQKMIPASQRAVTSPGQALSTVVKPLLQNTVDKILEALQRVFPHAEFRTNKTLDSDISCPLLESDLAYSDDDVPSVYENGLSQKSSHKAKDNFNFLHLNRNACYQPMSFRPRILIVGEPGFGQGSHLAPAVIHALEKFTVYTLDIPVLFGVSTTSPEETCAQVIREAKRTAPSIVYVPHIHVWWEIVGPTLKATFTTLLQNIPSFAPVLLLATSDKPHSALPEEVQELFIRDYGEIFNVQLPDKEERTKFFEDLILKQAAKPPISKKKAVLQALEVLPVAPPPEPRSLTAEEVKRLEEQEEDTFRELRIFLRNVTHRLAIDKRFRVFTKPVDPDEVPDYVTVIKQPMDLSSVISKIDLHKYLTVKDYLRDIDLICSNALEYNPDRDPGDRLIRHRACALRDTAYAIIKEELDEDFEQLCEEIQESRKKRGCSSSKYAPSYYHVMPKQNSTLVGDKRSDPEQNEKLKTPSTPVACSTPAQLKRKIRKKSNWYLGTIKKRRKISQAKDDSQNAIDHKIESDTEETQDTSVDHNETGNTGESSVEENEKQQNASESKLELRNNSNTCNIENELEDSRKTTACTELRDKIACNGDASSSQIIHISDENEGKEMCVLRMTRARRSQVEQQQLITVEKALAILSQPTPSLVVDHERLKNLLKTVVKKSQNYNIFQLENLYAVISQCIYRHRKDHDKTSLIQKMEQEVENFSCSR
notes: ATAD2 (ATPase family AAA domain-containing 2), human, aa 403-1390, from a codon-optimized synthetic full-length gene (Genscript); The vector has a Tev protease site after the 3xFlag tag; No cleavage step is described in the purification; also called wild type ATAD2
Question: Does B1 bind [1]?
Answer: binds

B2: ATAD2 Walker B mutant (E532Q), aa 403-1390 (domain or fragment, human, UniProt Q6PL18 403-1390, looked up)
chain: B1 chain with E130Q
notes: ATAD2 (ATPase family AAA domain-containing 2), human, aa 403-1390, Walker B mutation E532Q; A Tev site follows the tag, and no cleavage step is described; also called ATAD2 (in the structure sections); not shown: 3xFlag, N-terminal, kept
Question: Which “stoichiometry N” value [2] does the source give for B2 here?
Answer: 6

Question: Does B2 bind [3]?
Answer: binds

Question: Does B2 bind [4]?
Answer: binds

Question: Does B2 bind [5]?
Answer: binds

B3: ATAD2 LD/Walker B triple mutant (D415A/E532Q/R540A), aa 403-1390 (domain or fragment, human, UniProt Q6PL18 403-1390, looked up)
chain: B1 chain with D13A, E130Q, R138A
notes: ATAD2, human, aa 403-1390, with D415A, E532Q and R540A; source: SF9 cells (baculovirus), purified
Question: Does B3 bind [1]?
Answer: binds
